# Test results published in the supplement of paper PMC10567573.
# B1: MTMR15 (parent)
# chain: YVKAKKSIDKDEEFAGSSPQSSKS
# Variants of: B1
# Assay: protein stability index of a GFP-peptide fusion (GPS, HEK-293T) (PSI 1-6); higher = more stable
# Conditions: c terminus: a fixed tail appended
# 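Further: lentivirally expressed fusions sorted by FACS into six bins by GFP to DsRed ratio, PSI derived from sequencing read proportions per bin multiplied by bin number.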
row,Variant,protein stability index
1,YVKAKKSIDKDEAFAGSSPQSSKS [E13A],2.65
2,YVKAKKSIDKDEDFAGSSPQSSKS [E13D],3.49
3,YVKAKKSIDKDEWFAGSSPQSSKS [E13W],1.94
4,YVKAKKSIDKDEPFAGSSPQSSKS [E13P],2.81
5,YVKAKKSIDKDEHFAGSSPQSSKS [E13H],3.02
6,YVKAKKSIDKDECFAGSSPQSSKS [E13C],2.05
7,YVKAKKSIDKDEFFAGSSPQSSKS [E13F],2.09
8,YVKAKKSIDKDETFAGSSPQSSKS [E13T],2.7
9,YVKAKKSIDKYEEFAGSSPQSSKS [D11Y],2.77
10,YVKAKKSIDKSEEFAGSSPQSSKS [D11S],3.05
11,YVKAKKSIDKWEEFAGSSPQSSKS [D11W],2.31
12,YVKAKKSIDKQEEFAGSSPQSSKS [D11Q],2.94
13,YVKAKKSIDKREEFAGSSPQSSKS [D11R],2.45
14,YVKAKKSIDKTEEFAGSSPQSSKS [D11T],2.5
15,YVKAKKSIDKVEEFAGSSPQSSKS [D11V],2.72
16,YVKAKKSIDKNEEFAGSSPQSSKS [D11N],2.87
17,YVKAKKSIDKPEEFAGSSPQSSKS [D11P],2.56
18,YVKAKKSIDKMEEFAGSSPQSSKS [D11M],2.56
19,YVKAKKSIDKDEEFAGSYPQSSKS [S18Y],2.86
20,YVKAKKSIDKDEEFAGSRPQSSKS [S18R],3.13
21,YVKAKKSIDKDEEFAGSCPQSSKS [S18C],2.75
22,YVKAKKSIDKDEEFAGSEPQSSKS [S18E],3.48
23,YVKAKKSIDKDEEFAGSWPQSSKS [S18W],1.7
24,YVKAKKSIDKDEEFAGSNPQSSKS [S18N],3.9

row,Variant,protein stability index
1,YVKAKKSIDKDEEFAGSVPQSSKS [S18V],3.38
2,YVKAKKSIDKDEEFAGSKPQSSKS [S18K],3.04
3,YVKAKKSIDKDEEFAGSAPQSSKS [S18A],2.99
4,YVKAKKSIDKDEEFAGSIPQSSKS [S18I],3.66
5,YVKAKKSIDKDEEFAGSFPQSSKS [S18F],2.67
6,YVKAKKSIDKDEEFAGSMPQSSKS [S18M],2.59
7,YVKAKKSIDKDEEFAGSHPQSSKS [S18H],2.68
8,YVKAKKSIDKDEEFAGSPPQSSKS [S18P],3.04
9,YVKAKKSIDKDEEFAGSQPQSSKS [S18Q],2.93
10,YVKAKKSIDKDEEFAGSDPQSSKS [S18D],3.18
11,YVKAKKSIDKDEEFAGSGPQSSKS [S18G],3.26
12,YVKAKKSIDKDEEFAGSLPQSSKS [S18L],2.85
13,YVKAKKSIDKDEEFAGSTPQSSKS [S18T],2.64
14,YVKAKKSIDKDEEFAGDSPQSSKS [S17D],3.03
15,YVKAKKSIDKDEEFAGASPQSSKS [S17A],2.8
16,YVKAKKSIDKDEEFAGRSPQSSKS [S17R],2.91
17,YVKAKKSIDKDEEFAGQSPQSSKS [S17Q],2.93
18,YVKAKKSIDKDEEFAGISPQSSKS [S17I],2.96
19,YVKAKKSIDKDEEFAGTSPQSSKS [S17T],3.29
20,YVKAKKSIDKDEEFAGGSPQSSKS [S17G],3.17
21,YVKAKKSIDKDEEFAGKSPQSSKS [S17K],3.21
22,YVKAKKSIDKDEEFAGCSPQSSKS [S17C],3.01
23,YVKAKKSIDKDEEFAGHSPQSSKS [S17H],3.07
24,YVKAKKSIDKDEEFAGWSPQSSKS [S17W],4.48

row,Variant,protein stability index
1,YVKAKKSIDKDEEFAGLSPQSSKS [S17L],2.93
2,YVKAKKSIDKDEEFAGESPQSSKS [S17E],3.59
3,YVKAKKSIDKDEEFAGFSPQSSKS [S17F],1.79
4,YVKAKKSIDKDEEFAGNSPQSSKS [S17N],2.9
5,YVKAKKSIDKDEEFAGVSPQSSKS [S17V],2.35
6,YVKAKKSIDKDEEFAGYSPQSSKS [S17Y],1.92
7,YVKAKKSIDKDEEFAGMSPQSSKS [S17M],2.85
8,YVKAKKSIDKDEEFAGPSPQSSKS [S17P],2.79
9,YVKAKKSIDKDEEFAVSSPQSSKS [G16V],2.42
10,YVKAKKSIDKDEEFAYSSPQSSKS [G16Y],2.19
11,YVKAKKSIDKDEEFACSSPQSSKS [G16C],3.22
12,YVKAKKSIDKDEEFAISSPQSSKS [G16I],2.86
13,YVKAKKSIDKDEEFANSSPQSSKS [G16N],2.98
14,YVKAKKSIDKDEEFASSSPQSSKS [G16S],3.64
15,YVKAKKSIDKDEEFAESSPQSSKS [G16E],3.36
16,YVKAKKSIDKDEEFAWSSPQSSKS [G16W],3.45
17,YVKAKKSIDKDEEFAASSPQSSKS [G16A],3.07
18,YVKAKKSIDKDEEFARSSPQSSKS [G16R],3.06
19,YVKAKKSIDKDEEFADSSPQSSKS [G16D],3.54
20,YVKAKKSIDKDEEFAPSSPQSSKS [G16P],3.36
21,YVKAKKSIDKDEEFAQSSPQSSKS [G16Q],3.21
22,YVKAKKSIDKDEEFAFSSPQSSKS [G16F],2.03
23,YVKAKKSIDKDEEFATSSPQSSKS [G16T],2.85
24,YVKAKKSIDKDEEFAMSSPQSSKS [G16M],3.21

row,Variant,protein stability index
1,YVKAKKSIDKDEEFAHSSPQSSKS [G16H],2.71
2,YVKAKKSIDKDEEFALSSPQSSKS [G16L],2.85
3,YVKAKKSIDKDEEFAKSSPQSSKS [G16K],3.11
4,YVKAKKSIDKDEEFAGSSPISSKS [Q20I],2.51
5,YVKAKKSIDKDEEFAGSSPYSSKS [Q20Y],2.62
6,YVKAKKSIDKDEEFAGSSPMSSKS [Q20M],2.92
7,YVKAKKSIDKDEEFAGSSPDSSKS [Q20D],3.24
8,YVKAKKSIDKDEEFAGSSPNSSKS [Q20N],2.96
9,YVKAKKSIDKDEEFAGSSPWSSKS [Q20W],3.13
10,YVKAKKSIDKDEEFAGSSPASSKS [Q20A],2.66
11,YVKAKKSIDKDEEFAGSSPKSSKS [Q20K],3.24
12,YVKAKKSIDKDEEFAGSSPESSKS [Q20E],3.29
13,YVKAKKSIDKDEEFAGSSPPSSKS [Q20P],2.75
14,YVKAKKSIDKDEEFAGSSPHSSKS [Q20H],3.2
15,YVKAKKSIDKDEEFAGSSPSSSKS [Q20S],2.9
16,YVKAKKSIDKDEEFAGSSPVSSKS [Q20V],2.84
17,YVKAKKSIDKDEEFAGSSPCSSKS [Q20C],2.82
18,YVKAKKSIDKDEEFAGSSPLSSKS [Q20L],3
19,YVKAKKSIDKDEEFAGSSPGSSKS [Q20G],3.27
20,YVKAKKSIDKDEEFAGSSPTSSKS [Q20T],3.4
21,YVKAKKSIDKDEEFAGSSPFSSKS [Q20F],2
22,YVKAKKSIDKDEEFAGSSPRSSKS [Q20R],2.73
